Experimental data reported in publication PMC3074190 (Molecular carcinogenesis, 2010).

T1: GST-β-catenin-S37A (human, UniProt P35222 1-781, S37A)
T1 sequence (looked up): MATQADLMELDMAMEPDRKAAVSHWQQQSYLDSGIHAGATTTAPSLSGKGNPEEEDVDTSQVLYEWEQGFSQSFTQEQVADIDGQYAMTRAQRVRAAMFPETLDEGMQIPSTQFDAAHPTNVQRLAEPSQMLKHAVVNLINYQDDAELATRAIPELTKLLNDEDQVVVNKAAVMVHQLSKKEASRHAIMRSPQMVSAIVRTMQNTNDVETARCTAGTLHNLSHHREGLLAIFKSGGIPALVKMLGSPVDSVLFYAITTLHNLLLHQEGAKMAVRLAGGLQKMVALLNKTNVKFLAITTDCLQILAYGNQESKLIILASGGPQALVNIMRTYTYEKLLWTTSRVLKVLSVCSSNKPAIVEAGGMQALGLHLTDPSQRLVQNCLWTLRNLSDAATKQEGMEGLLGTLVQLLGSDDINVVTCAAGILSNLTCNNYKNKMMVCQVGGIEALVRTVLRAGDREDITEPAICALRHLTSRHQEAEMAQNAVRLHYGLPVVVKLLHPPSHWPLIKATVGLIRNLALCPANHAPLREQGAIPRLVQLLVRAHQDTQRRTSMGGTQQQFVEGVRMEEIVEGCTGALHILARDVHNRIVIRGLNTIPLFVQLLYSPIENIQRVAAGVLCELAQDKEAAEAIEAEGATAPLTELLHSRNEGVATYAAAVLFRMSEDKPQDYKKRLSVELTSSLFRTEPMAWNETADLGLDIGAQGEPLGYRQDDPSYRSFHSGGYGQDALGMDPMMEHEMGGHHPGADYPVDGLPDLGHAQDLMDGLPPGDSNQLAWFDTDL

B1: VDR prey (AD fusion), wild type (natural protein)
chain: MEAMAASTSLPDPGDFDRNVPRICGVCGDRATGFHFNAMTCEGCKGFFRRSMKRKALFTCPFNGDCRITKDNRRHCQACRLKRCVDIGMMKEFILTDEEVQRKREMILKRKEEEALKDSLRPKLSEEQQRIIAILLDAHHKTYDPTYSDFCQFRPPVRVNDGGGSHPSRPNSRHTPSFSGDSSSSCSDHCITSSDMMDSSSFSNLDLSEEDSDDPSVTLELSQLSMLPHLADLVSYSIQKVIGFAKMIPGFRDLTSEDQIVLLKSSAIEVIMLRSNESFTMDDMSWTCGNQDYKYRVSDVTKAGHSLELIEPLIKFQVGLKKLNLHEEEHVLLMAICIVSPDRPGVQDAALIEAIQDRLSNTLQTYIRCRHPPPGSHLLYAKMIQKLADLRSLNEEHSKQYRCLSFQPECSMKLTPLVLEVFGNEIS
B2: human vitamin D receptor, full-length wild type (F/M4 allele), 35S-methionine labelled (natural protein, UniProt P11473 4-427, looked up)
chain: MAASTSLPDPGDFDRNVPRICGVCGDRATGFHFNAMTCEGCKGFFRRSMKRKALFTCPFNGDCRITKDNRRHCQACRLKRCVDIGMMKEFILTDEEVQRKREMILKRKEEEALKDSLRPKLSEEQQRIIAILLDAHHKTYDPTYSDFCQFRPPVRVNDGGGSHPSRPNSRHTPSFSGDSSSSCSDHCITSSDMMDSSSFSNLDLSEEDSDDPSVTLELSQLSMLPHLADLVSYSIQKVIGFAKMIPGFRDLTSEDQIVLLKSSAIEVIMLRSNESFTMDDMSWTCGNQDYKYRVSDVTKAGHSLELIEPLIKFQVGLKKLNLHEEEHVLLMAICIVSPDRPGVQDAALIEAIQDRLSNTLQTYIRCRHPPPGSHLLYAKMIQKLADLRSLNEEHSKQYRCLSFQPECSMKLTPLVLEVFGNEIS
modifications: 35S-methionine labelled
B3: VDR Δ1–88, N-terminally truncated VDR, 35S-methionine labelled (domain or fragment, human, UniProt P11473 89-427, looked up)
chain: MMKEFILTDEEVQRKREMILKRKEEEALKDSLRPKLSEEQQRIIAILLDAHHKTYDPTYSDFCQFRPPVRVNDGGGSHPSRPNSRHTPSFSGDSSSSCSDHCITSSDMMDSSSFSNLDLSEEDSDDPSVTLELSQLSMLPHLADLVSYSIQKVIGFAKMIPGFRDLTSEDQIVLLKSSAIEVIMLRSNESFTMDDMSWTCGNQDYKYRVSDVTKAGHSLELIEPLIKFQVGLKKLNLHEEEHVLLMAICIVSPDRPGVQDAALIEAIQDRLSNTLQTYIRCRHPPPGSHLLYAKMIQKLADLRSLNEEHSKQYRCLSFQPECSMKLTPLVLEVFGNEIS
modifications: 35S-methionine labelled

Key:
[1] = target: β-catenin bait (BD fusion) (human) (UniProt P35222); test: two-hybrid
[2] = target: T1, GST-β-catenin-S37A; test: pull-down

Binder	fold increase of the two-hybrid signal with 1,25D over vehicle [1] [fold]	fold increase of the two-hybrid signal with LCA over vehicle [1] [fold]	band intensity with GST-β-catenin, fold over GST-only control [2] [fold]
B1	12	8	–
B2	–	–	8.3
B3	–	–	7.1
